Test results: patent publication US20200222444

Biological target: Flag-Mettl8 (Flag-tagged human Mettl8, wild type) (UniProt Q9H825)
Sequence (Q9H825 other isoform, or with tags, fused parts or gaps): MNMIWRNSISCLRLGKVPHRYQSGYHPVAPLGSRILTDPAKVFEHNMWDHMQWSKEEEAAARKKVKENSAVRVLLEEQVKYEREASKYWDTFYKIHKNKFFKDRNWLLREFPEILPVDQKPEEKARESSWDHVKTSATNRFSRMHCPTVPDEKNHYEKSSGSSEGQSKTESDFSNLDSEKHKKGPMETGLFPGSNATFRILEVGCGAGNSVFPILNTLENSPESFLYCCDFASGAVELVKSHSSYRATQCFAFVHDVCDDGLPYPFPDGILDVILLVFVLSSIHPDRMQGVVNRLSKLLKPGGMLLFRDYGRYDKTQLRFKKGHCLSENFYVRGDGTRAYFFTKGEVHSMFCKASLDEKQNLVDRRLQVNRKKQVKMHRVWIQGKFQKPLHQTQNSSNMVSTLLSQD

Endogenous ATM
pS/TQ phosphorylation after 10 Gy irradiation (Flag IP, immunoblot): pS/TQ phosphorylation was detected on wild type Mettl8 upon irradiation
